Residue numbers refer to the chain shown, from its start. Names may count otherwise.
B1: PDZ2 domain of human Discs Large 1 (DLG1), residues 315–410 (domain or fragment, UniProt Q12959 315-410, looked up)
chain: EKIMEIKLIKGPKGLGFSIAGGVGNQHIPGDNSIYVTKIIEGGAAHKDGKLQIGDKLLAVNNVCLEEVTHEEAVTALKNTSDFVYLKVAKPTSMYM
notes: human Discs Large 1/Synapse Associated Protein 97 (DLG1), PDZ2 domain, residues 315-410; cloned into a pET28a-derived vector; also called WT PDZ2; second PDZ domain of DLG1; source: E. coli BL21 (DE3), purified (Ni2+-NTA, Superdex 200 gel filtration)
B2: GST-tagged C-terminal 11 residues of human Adenomatous Polyposis Coli (APC), residues 2833–2843 (peptide)
chain: RHSGSYLVTSV
notes: human Adenomatous Polyposis Coli (APC), C-terminal 11 residues, 2833-2843 of the 2,843-residue protein; cloned into pGEX4T1; also called GST-APC-C11; APC-C11; not shown: GST, N-terminal, kept
B3: PDZ2 domain of human DLG1 with the point mutation Q340P (domain or fragment, UniProt Q12959 315-410, looked up)
chain: B1 chain with Q26P
notes: human DLG1 PDZ2 domain, residues 315-410, Q340P; also called PDZ2 Q340P; PDZ2-Q340P; source: E. coli BL21 (DE3), purified

How the values were obtained:
[1] = target: B2; experiment: ITC; ITC200, 25°C, 50 mM HEPES pH 7.5, 100 mM NaCl; PDZ domain (400 µM) injected 20 times in 2 µl aliquots into 40 µM GST-tagged APC-C11 or APC-C4; single site binding model; settings: both partners purified
[2] = target: B3; experiment: as above; settings: both partners purified

| Binder | dH [1] [kcal/mol] | stoichiometry N [1] | Kd [2] [µM] |
| --- | --- | --- | --- |
| B1 | -7.09 ± 0.19 | 0.916 ± 0.018 |  |
| B2 |  |  | 9.8 ± 1.11 |
| B3 | -6.76 ± 0.27 | 1.04 ± 0.03 |  |

Source: PMC3157396, “Molecular Basis for the Recognition of Adenomatous Polyposis Coli by the Discs Large 1 Protein” (PLoS ONE, 2011)
